Experimental data from article PMC7005868.

Molecular target: CD63-GLucC (CD63 truncated at Val206 fused to the C-terminal fragment of Gaussia luciferase) (UniProt P08962)
Experiment: split reporter (BiFC, NanoBiT); Gaussia luciferase protein complementation assay (PCA); GLucN and GLucC fusion plasmids co-transfected 1:1 into HEK293FT; membranes disrupted by two freeze-thaw cycles; luminescence with 10 uM coelenterazine

Sequence of UniProt P08962 (P08962 1-206): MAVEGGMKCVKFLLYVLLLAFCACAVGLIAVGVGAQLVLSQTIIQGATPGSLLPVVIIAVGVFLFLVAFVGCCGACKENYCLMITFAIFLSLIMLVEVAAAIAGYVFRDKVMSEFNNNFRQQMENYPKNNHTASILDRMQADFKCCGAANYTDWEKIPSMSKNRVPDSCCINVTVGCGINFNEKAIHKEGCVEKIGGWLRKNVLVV

loss of the ability to bind CD63 against full-length TIMP-1: 83%
Substance: GLucN-T1ΔC (TIMP-1 truncated after L168) (domain or fragment)
